B1: Bacterioferritin from Escherichia coli str. K-12 substr. MG1655 (natural protein)
chain: not shown
notes: Carries an inorganic iron core; also called EcBfr; Bfr; source: E. coli BL21(DE3), pet22b, ferrous salt added to the medium (biomineralized), purified; copies: 24
B2: Non-heme ferritin from Enterobacteriaceae (E. coli FTn) (natural protein, UniProt P0A998 1-165, looked up)
chain: MLKPEMIEKLNEQMNLELYSSLLYQQMSAWCSYHTFEGAAAFLRRHAQEEMTHMQRLFDYLTDTGNLPRINTVESPFAEYSSLDELFQETYKHEQLITQKINELAHAAMTNQDYPTFNFLQWYVSEQHEEEKLFKSIIDKLSLAGKSGEGLYFIDKELSTLDTQN
notes: Carries an inorganic iron core; also called EcFTn; source: E. coli BL21(DE3), pet22b, ferrous salt added to the medium (biomineralized), purified; copies: 24
B3: DNA protection protein from Sulfolobus solfataricus (natural protein, UniProt P95855 1-188, looked up)
chain: MQEKPQEPKVVGVEILEKSGLDIKKLVDKLVKATAAEFTTYYYYTILRMHLTGMEGEGLKEIAEDARLEDRLHFELMTQRIYELGGGLPRDIRQLADISACSDAYLPENWKDPKEILKVLLEAEQCAIRTWKEVCDMTYGKDPRTYDLAQRILQEEIEHEAWFLELLYGRPSGHFRRSSPGNAPYSKK
notes: Carries an inorganic iron core; also called ssDps; S. solfataricus Dps; source: E. coli BL21(DE3), pet22b, ferrous salt added to the medium (biomineralized), purified; copies: 12

Target: the molecule itself
Test: negative-stain TEM and DLS; purified biomineralized ferritin, 0.1 mg/mL; stained with 1% uranyl acetate, JEM-1400 80 kV TEM; DLS at 25 °C; assembly of the subunits into the protein cage

Binding result, binds:
B1
B2
B3

Reference: paper PMC10764798, “A natural biogenic nanozyme for scavenging superoxide radicals” (Nature Communications, 2024)
